Laboratory results published in the nanobody polyreactivity screen of Harvey et al. (2022).

Assay: yeast display, Sf9 membrane polyspecificity reagent, FACS + sequencing; frameworks hold sequencing errors
Procedure, shortened: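 Sorting gates, low and high (top ~1%), were placed on anti-HA fluorescence to track expression and on streptavidin fluorescence to track reagent binding. A clone's polyreactivity label is taken from the gate it came out of. The reagent was 10% biotinylated, detergent-solubilized Sf9 membrane, applied for 1 hour at 4 °C to galactose-induced yeast display cells.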

Row | Sequence | polyreactivity (PSR sort gate)
1 | QVQLVESGGGLVQAGGSLRLSCAASGRIFNAYAIGWYRQAPGKERELVAAITVSGTRTYYADSVKGRFTISRDNAKNTVYLQMNSLKPEDTAVYYCAADIYHQPRYKYYYWGQGTQVTVSS | high polyreactivity
2 | QVQLVESGGGLVQAGGSLRLSCAASGLIFKRYAMGWYRQAPGKERELVAAISYSGGSTYYADSVKGRFTISRDNAKNTVYLQMNSLKPEDTAVYYCATVYYHRFDYWGQGTQVTVSS | high polyreactivity
3 | QVQLVESGGGLVQAGGSLRLSCAASGRIFTDYDMGGYRHAPGKERELVASISGSDGNTDYADSVKGRFTISRDNAKNTVYLQMNSLKPEDTAVYYCAADLRVYDFFRYPETYGYWGQGTQVTVSS | low polyreactivity
4 | QVQLVESGGGLVQAGGSLRLSCAASGITFGYYAMGWSRQAPGKERELVAAISSGGRTNYADSVKGRFTISRDNAKNTVYLQMISLKPEDTAVYYCAASTHHPGYPPDVLYDEYEYWGQGTQVTVSS | low polyreactivity
5 | QVQLGESGGGLVQAGGSLRLSCAASGRIFSYNAMRWYRPAPGKERELVAGITSGGRTYYADSVKGRFTISRDNAKNTVYLQMNSLKPEDTAVYYCAARYVPARTRYYFWGQGSQVTVSS | high polyreactivity
6 | QVQLVESGGGLVQAGGSLRLSCAASGSIFVENAMGWYRQAPGKERELVAAISSDASTNYADSVKGRFTISRDNAKNTVYLQMNSLKPEDTAVYSCAAGYNPHGQYDYWGQGTQVTVSS | low polyreactivity
7 | QVQLVESGGGLVQAGGSLRLSCAASGFIFRVYAMGWYRQAPGKERELVAAMSYSGGSTYYADSVKGRFTISRDNAKNTVYLQMNSLKPEDTAVYYCAAESYVSRYPYGYWGQGTQVTVSS | high polyreactivity
8 | QVQLVESGGGLVQAGGSLRLSCAASGSTFDTNAMGWYRQAPGKERELVATITSIGGSTYADSVKGRFTISRDNAKNTVYLQMNSLKPEDTAVYYCATDYVEIDYDYDYWGQGTQVTVSS | low polyreactivity
9 | QVQLVESGGGLVQAGGSLRLSCAASGYTFSLNAMGWYRQAPGKERELVAAISGRTGRTYYADSVKGRFTISRDNAKNTVYLQMNSLKPEDTAVYYGNKVYPYQRRTRFDYWGQGTQVTVSS | high polyreactivity
10 | QVQLVESGGGLVQAGGSLRLSCASSGRTFGTYAMGSYRQAPGKDSELVAAITSGTRTYYADCVKGRFTISRDNAKNTVYLQMNSQKPEDTSVYYCAAGLVYRWSSTPRRLYYYWGQGTQVTVSS | high polyreactivity
11 | QVQLVESGGGLVQAGGSLRLSCAASGAILRRYAMGWYRQAPGKERELVAAISYSGGNTYYADSVKGRFTISRDNAKNTVYLQMNSLKPEDTAVYYCAARYYGTYRGFYYWGQGTQVTVSS | high polyreactivity
12 | QVQLVESGGGLVQAGGSLRLSCAASGSIFFPYAMGWYIQAPGKERELVAAITGSTGSTYYADSVKGRFTISRDNAKNTVYLQMNSLKPEDTAVYYCAAAEYFVSGGIMDYWGQGTQVTVSS | high polyreactivity
13 | QVQLVESGGGLVQAGGSLRLICAASGRIFNVYAMGWYRQAPGKETELVASITSAGSTYYADSVKGRFTISRDNAKNTVYLQMNSLKPEDTAVYYCNAESYSTWSFGHRYEYDYWGQGTQVTVSS | low polyreactivity
14 | QVQLQESGGGLVQAGGSLRLSCAASGSISHYIFMGWYRQAPGKEREFVAGIGYGGTTNYADSVKGRFTISRDNAKNTVYLQMNSLKPEDTAMYYCAAREATEFYLYYWGQGTQVTVSS | low polyreactivity
15 | QVQLVESGGGLVQAGGSLRLSCAASGFTFYRYDMGWYRQAPGQERELVAAITNNGGNTYYADSVKGRFTISRDNAKNTVYLQMNSLKPEDTAVYYCAARTWGRYDYWGQGTQVTVSS | high polyreactivity
16 | QVQLVESGAGLVQAGGSLRLSCAASGFIFVKYAMGWYRQAPGKERELVAAISRSGGRTYYADSVKGRFTISRDNAKNNVYLQMNSLKPEDTAVYYCATDYYEDWRGYEDYWYRPYDYWGQGTQVTVSS | high polyreactivity
17 | QVQLVESGGGLVQAGGSLRLSCAASGSIFFYYAMGWYRQAPGKERELVASISTDGSTYADSVKGRFTISRDNAKNTVYLQMNSLKPEDTAVYYCNADTRGEYTYVSWYDYWGQGTQVTVSS | low polyreactivity
18 | QVQLVESGGGLVQAGGSLRLSCAASGIISSVYAMGWSRQAPGKERELVAAISGSGGSTYYADSVKGRFTISRDNAKNTVYLQMNSLKPEDTAVYYCAKGYQYQGNSYGYWGQGTQVTVSS | low polyreactivity
19 | QVQLVESGGGLVQAGGSLRLSCAASGPTFYRYAMGWYRQAPGKERELVAAISSSGGSTYYADSVKGRFTISRDNANNTVYLQMNSLKPEDTAVYYCATGYRYASYLCNYWGHGTQVTVSS | high polyreactivity
20 | QVQLVESGGGLVQAGGSLRLSCAASGITSSYAMGWYRQAPGKERELVAAISRGGSTYYADSVKGRFTISRDNAKNTVYLQMNSLKPEDTAVYYCNKRRYPYGWGQGTQVTVSS | high polyreactivity
21 | QVQLVESGGGLVHAGGSLRLSCAASGFTFAQNAMGWYRQATGKEREWVAAITRSGARTYYADSVKGRFTISRDNAKNTVYLLMNSLKPEDTPVYYCNRDASRKYGYWGQGTQVTVSS | high polyreactivity
22 | QVQLQESGRRPGAAGGSPRMSCAASGNIFWVAVMGRYRQAPGKERELVASIGFGCTTYYADSVKCRFTISRDNAKNTVYLQMISLKPEDTAVYYCAAPHYDWGEIDYWGQGTQVPVSS | low polyreactivity

Row | Sequence | polyreactivity (PSR sort gate)
23 | QVQLVESGGGLVQAGGSLRLICAASGFTFASYGMGWYRQARGKERELVAAISWSGGRTYYADSVKGRFTISRDNATNTVYLQMNSLKPEDSAVYYSNAYWNPASKYDYWGQGTQVTVSS | high polyreactivity
24 | QVQLVESGGGLVQAGGSLRLSCAASGRIFPSYAMGWYRPAPGKERELVAAITWSGGSTYYAHSVKGRFTISRDNAKNTVYLLRNSLKPEDTAVYYCNRVERRGTYDYWGQGTQVSVSS | high polyreactivity
25 | QVQLVESGGGLVQAGGSLRLSCAASGLIFEVNVMGWYRQAPGTERELVAAITTGGGSTYYADSVKGRFTISRDNAKNTVYLQMNSLKPEDTAVYYCATDYSSYLYDYYTGVGGYEYWGQGTQVTVSS | low polyreactivity
26 | QVQLVESGGGLVQAGGSLRLSCAASGITFYSNAMGWYRQAPGKERELVARISSSGGSTYYADSVKGRFTISRDNAKNTVYLQMNSLKPEDTAVYYCAARRLWVRGYNYWGQGTQVTVSS | high polyreactivity
27 | QVQLVESGGGLVQAGGSLRLSCAASGITFPYYTMGWYRQAPGKERELVATIRNGGSTYYADSVKGRFTISRDNAKNTVYLQMNSMKPEDTAVYYCAAVPLWDYKFFYYLLYDYWGQGTQVTVSS | low polyreactivity
28 | QVQLVESGGGLVQAGGSLRLTCAASGRIFTSYAMGWYRQAPGKERELVATITGSTASTYYADSVKGRFTISRDNAKYTVYLQMNSLKPEDTAVYYCAARSVGKRGYDYWGQCTQVTVSS | high polyreactivity
29 | QVQLVDSGGGLVQAGGSLRLSCAASGFIFPYYAMGWYRQAPGKERELVAAITRGGRTYYADSVKGRFTISRDNAKNTVYLQMNSLKPEDTAVYYCAARAGLDGEMDYWGQGTQVTVSS | high polyreactivity
30 | QVQLVESGGGLVQAGGSLRLSCAASGSIFTQYTMGWYRQAPGKERELVAAISRSGGRTYYADSVKGRFTISRDNSKNTVYLQMKSLKPEDTAVYYCAAEYTDKYEYWGQGTQVTVSS | high polyreactivity
31 | QVQLVESGGGLVQAGGSLPLSGAPSGSTFGYNTMGWSRQAPGKESELVAAITSGGRTYYADSVKGRFTISRDNAKNTVYLQRNSLKPEDTAVYYCAAYYWWGYPENDYWVQGTQVTVSS | high polyreactivity
32 | QVQLVESGGGLVQAGGSLRLSCAASGFTFVDYMGWYRQAPGKERELVAAIDNSGGGTYYADSVKGRFTISRDNAKNTVYLQMNSLKPEDTAVYYRYAYTFYIYEDVLYVQGDYYWGQGTQVTVSS | low polyreactivity
33 | QVQLVESGGGLVQPGGSLRLSCAASGSNFEPYAMGWYRQAPGKERELVAAISSGGSTNYADSVKGRFTISRDNAKNTVYLQMNSLKPEDTAVYFCAAAYYTVGWLFYDYWYPFAYYYWGQGTQVTVSS | low polyreactivity
34 | QVQLVESGGGLVQAGGSLRLSCAASGNTFSWYAMGWYRQAPGKERELVAVIRDGSTYYADSVKGRFTISRDNAKNTVYLQMNRLKPEDTAVYYCRYDIWVWWSGAYDYWGQGTQVTVSS | low polyreactivity
35 | QVHLVESRGGLIQAGGSLRLSCAASGSLYVYNALGWYRQAPGKERELVAGITFIGGSTYYADSVKGRFTISRDNAKNTVYLQMNSLKPEDTAVCYSNADVAPGIFYGYDSWGQGTQVTVSS | low polyreactivity
36 | QVQLVESGGGLVQAGGSLRLSCAASGGTFVRYAMGGYRPAPGKERELVAAISSRGGSTYYADSVKGRFTISRDNAKNTVFLQMNSLKPEDTAVYYCAARPGYYDFYWGQGTQVTVSS | high polyreactivity
37 | QVQLVESGGGLVQAGGSLRLSCAASGRTFGANTMGWYRPAPGKERELVAAITWSGDSTYYADSVKGRFTISRDNAKNTVYLQMNSLKPEDTAVYYCAARLWRQYYYWGQGTQVTVSS | high polyreactivity
38 | QVQLVESGGGLVQAGGSLRLSCAASGSTFLRYAMGWYRQAPGKERELVAAINWSGGGTSYADSVKWRFTISRDNAKNTVYLQMNSLKPEDTEGYSCAAYFRYSYYWSEYWGQGTQVTVSS | high polyreactivity
39 | QDQLVESGGGLVQAGGSLRLSCAASGRTFVKYAMGWYRQAPGKERELVAAISRRGGSTYYADSVKGRFTISRDNAKNTVYLQMNSLKPEDTAVYYCAVSIGRYPYRYGYWGQGTQVTVSS | high polyreactivity
40 | QVQLVESGGGLVQAGGSLRLSCAASGRIGTYAMGWYRQAPGKERELVAGIRSGGSTYYADSVKGRFTISRDNAKNTVYLQLNSLKPEDTAVYYCAADRGYRGATGKYDSWGQGTQVTVSS | high polyreactivity
41 | QVQLVESGGGLVQAGGSLRLSCAASGFIYARYAMGWYRQAPGKERELVAGISGGGGRTYYADSVKGRFTISRDNAKNTVYLQMNSLKPEDTAVYYCAATPQSRDRRFNYWGQGTQVTVSS | high polyreactivity
42 | QVQLVESGGGLVQAGGSLRLICAASGFTIWWYAMGWYRQAPGKERELVATITSGGRTYYADSVKGRFTISRDNAKNTVYLQMNSLKPEDTAVYYCAAESEVGYVYDPMYYLGQGTQVTVSS | high polyreactivity
43 | QVQLVESGGGLVQAGGSLRLSCAASGSTFGWYAMGWYRQAPGKERELVAAITSGGGTYYADSVKGRFTISRDNAKNTVYLQMNSLKPEVTAVYYCAADFVYSGWAPYDFWVTSYDYWGQGTQVTVSS | low polyreactivity
